Test results: patent CN117616043A (BIOGIC DESIGN LTD, dated 2024)
Residue numbers refer to the chain shown, from its start.

B1: BDG33.023 (antibody, V domains shown)
VH: QMQLVESGGGVVQPGRSLRLSCAASGFAFRTYGMHWVRQAPGKGLEWVAVIWYDGSNTHYADSVKGRFTITRDNSKNTLNLQMNSLRAEDTAVYYCARAPQWYLSAEAFDLWGQGTMVTVSS
VL: SYVLTQPPSVSVAPGQTARITCGGNLIGSKLVHWYQQKPGQAPVLVVYDDSDRPSRIPERFSGSNSGNTATLTISRVEAGDEADYYCQVWDHSSDHVVFGGGTKLTVL
B2: BDG33.025 (antibody, V domains shown)
VH: B1 VH with A28T, V50D, T58K, S105V, A108P
VL: B1 VL with R56L, H92S, H96G
B3: BDG33.003 (antibody, V domains shown)
VH: B1 VH with A28T, T58K, Y103E, S105T, L111I
VL: B1 VL with R56L, H92S, H96G
notes: also called BGD33.003; 克隆C2
B4: BDG38.079 (antibody, V domains shown)
VH: B1 VH with A97V, S105T
VL: SYVLTQPPSVSVAPGETATITCGGNMIGGYLVHWYQQKPGQAPLLVIYDDVDRPDRIPERFSGSNSGNTATLTISRVEAGDEADYYCQVWDHDSNTMVFGGGTKLTVL
B5: BDG38.074 (antibody, V domains shown)
VH: B1 VH with Y53D, A97V, S105T
VL: B4 VL with E16Q, G29A, I47V, D55N, D93N, S94T, N95D, T96K

Tests used:
[1] = target: 重组人IL-13 (rh-IL-13) (human, UniProt P35225 35-146); test: cell-based or functional assay
Sequence of 重组人IL-13 (rh-IL-13) (P35225 35-146 limits assumed): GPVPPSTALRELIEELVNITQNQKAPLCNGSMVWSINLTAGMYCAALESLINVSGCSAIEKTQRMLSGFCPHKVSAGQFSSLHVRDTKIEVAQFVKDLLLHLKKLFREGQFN

[2] = target: hTSLP-His (human, UniProt Q969D9 29-159, limits assumed); test: cell-based or functional assay
[3] = target: T1, 人TSLP (hTSLP) (human, UniProt Q969D9 29-159); test: SPR and ELISA, conclusion of Example 3
T1 construct: also called rhTSLP

Binder	IC50 (IL-13信号传导级联抑制, HEK-Blue IL-4/IL-13, SEAP) [1] [nM]	IC50 (MUTZ-5细胞pSTAT5抑制) [2] [nM]	further results
B1	1.3	–	IC50 (MUTZ5细胞中TSLP依赖性pSTAT5活化的抑制) [2]: 0.013 nM
B2	25	–	–
B3	–	–	binding result [3]: binds
B4	–	~0.013	–
B5	–	~0.035	–
